Source: patent US20170129954A1 (PROTHENA BIOSCIENCES, published 2017)

What was measured:
Assay in all cases: shotgun mutagenesis library, immunofluorescence on BHK cells, 0.5 µg/mL antibody
[1] = target: T1, human MCAM C272A mutant (shotgun mutagenesis library, on BHK cells) (human, UniProt P43121 24-646)
T1 chain: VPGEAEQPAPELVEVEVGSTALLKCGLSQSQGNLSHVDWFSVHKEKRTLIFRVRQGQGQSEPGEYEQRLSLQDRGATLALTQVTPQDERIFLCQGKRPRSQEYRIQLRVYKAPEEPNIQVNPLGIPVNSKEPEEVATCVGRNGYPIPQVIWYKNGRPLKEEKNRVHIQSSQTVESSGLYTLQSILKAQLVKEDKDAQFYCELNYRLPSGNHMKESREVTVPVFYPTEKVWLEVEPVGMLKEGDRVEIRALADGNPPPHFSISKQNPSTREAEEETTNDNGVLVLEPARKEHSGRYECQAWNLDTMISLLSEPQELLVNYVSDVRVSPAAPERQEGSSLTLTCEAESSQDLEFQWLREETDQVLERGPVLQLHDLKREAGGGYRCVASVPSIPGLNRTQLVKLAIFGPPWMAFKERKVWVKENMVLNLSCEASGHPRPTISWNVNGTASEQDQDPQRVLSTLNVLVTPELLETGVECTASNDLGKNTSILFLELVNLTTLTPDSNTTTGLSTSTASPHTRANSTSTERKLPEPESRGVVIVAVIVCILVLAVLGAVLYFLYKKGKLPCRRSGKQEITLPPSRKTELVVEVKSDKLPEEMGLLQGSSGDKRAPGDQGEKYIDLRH
Procedure: (§1) Secondary antibodies from Jackson ImmunoResearch were used at 1:400 for MAb and sera detection.
(§2) The mutation library was assayed for surface expression (mouse sera binding) and monoclonal antibody binding, in triplicate. Each raw data point was background-subtracted and normalized to the wild type MCAM reactivity values. The mean monoclonal antibody binding value for each clone is plotted as a function of its mean surface expression value (FIG. 1, gray diamonds). Thresholds of <30% monoclonal antibody reactivity and >50% mouse sera binding were applied to identify clones (FIG. 1, black diamonds) that were negative for monoclonal antibody binding but positive for surface expression.

[2] = target: T2, human MCAM C320A mutant (shotgun mutagenesis library, on BHK cells) (human, UniProt P43121 24-646)
T2 chain: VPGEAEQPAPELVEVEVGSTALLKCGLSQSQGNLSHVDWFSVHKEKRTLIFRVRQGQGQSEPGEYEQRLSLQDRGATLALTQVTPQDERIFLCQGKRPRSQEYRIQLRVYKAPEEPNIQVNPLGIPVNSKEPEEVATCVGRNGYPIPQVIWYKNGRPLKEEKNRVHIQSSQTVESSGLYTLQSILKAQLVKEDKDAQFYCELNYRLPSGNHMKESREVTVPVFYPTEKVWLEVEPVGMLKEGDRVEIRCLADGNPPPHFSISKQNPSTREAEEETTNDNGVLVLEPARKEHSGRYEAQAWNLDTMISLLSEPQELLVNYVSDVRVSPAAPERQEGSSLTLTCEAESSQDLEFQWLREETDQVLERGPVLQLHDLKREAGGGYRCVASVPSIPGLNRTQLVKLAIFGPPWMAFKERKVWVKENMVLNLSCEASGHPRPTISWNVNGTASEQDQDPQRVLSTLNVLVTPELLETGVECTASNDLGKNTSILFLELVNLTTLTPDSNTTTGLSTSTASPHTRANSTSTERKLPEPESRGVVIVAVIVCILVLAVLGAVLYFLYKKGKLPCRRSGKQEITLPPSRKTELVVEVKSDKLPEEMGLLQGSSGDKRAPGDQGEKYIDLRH
Procedure: as §1, §2

[3] = target: T3, human MCAM Y318A mutant (shotgun mutagenesis library, on BHK cells) (human, UniProt P43121 24-646)
T3 chain: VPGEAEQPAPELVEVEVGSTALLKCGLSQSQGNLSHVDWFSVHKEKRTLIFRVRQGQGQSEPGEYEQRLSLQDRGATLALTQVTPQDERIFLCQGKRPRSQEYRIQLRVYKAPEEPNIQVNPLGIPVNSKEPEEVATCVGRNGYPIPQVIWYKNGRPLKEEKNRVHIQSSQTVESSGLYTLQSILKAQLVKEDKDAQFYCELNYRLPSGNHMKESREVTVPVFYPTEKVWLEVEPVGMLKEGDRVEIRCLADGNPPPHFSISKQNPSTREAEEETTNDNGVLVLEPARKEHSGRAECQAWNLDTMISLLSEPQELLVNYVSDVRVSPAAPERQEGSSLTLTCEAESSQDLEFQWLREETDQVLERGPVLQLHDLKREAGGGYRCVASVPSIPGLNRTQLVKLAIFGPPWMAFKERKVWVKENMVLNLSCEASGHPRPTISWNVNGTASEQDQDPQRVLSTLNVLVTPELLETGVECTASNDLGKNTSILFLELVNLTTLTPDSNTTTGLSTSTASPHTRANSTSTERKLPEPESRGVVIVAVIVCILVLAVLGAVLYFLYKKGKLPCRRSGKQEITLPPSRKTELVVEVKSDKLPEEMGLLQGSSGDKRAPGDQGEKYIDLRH
Procedure: as §1, §2

[4] = target: T4, human MCAM V340A mutant (shotgun mutagenesis library, on BHK cells) (human, UniProt P43121 24-646)
T4 chain: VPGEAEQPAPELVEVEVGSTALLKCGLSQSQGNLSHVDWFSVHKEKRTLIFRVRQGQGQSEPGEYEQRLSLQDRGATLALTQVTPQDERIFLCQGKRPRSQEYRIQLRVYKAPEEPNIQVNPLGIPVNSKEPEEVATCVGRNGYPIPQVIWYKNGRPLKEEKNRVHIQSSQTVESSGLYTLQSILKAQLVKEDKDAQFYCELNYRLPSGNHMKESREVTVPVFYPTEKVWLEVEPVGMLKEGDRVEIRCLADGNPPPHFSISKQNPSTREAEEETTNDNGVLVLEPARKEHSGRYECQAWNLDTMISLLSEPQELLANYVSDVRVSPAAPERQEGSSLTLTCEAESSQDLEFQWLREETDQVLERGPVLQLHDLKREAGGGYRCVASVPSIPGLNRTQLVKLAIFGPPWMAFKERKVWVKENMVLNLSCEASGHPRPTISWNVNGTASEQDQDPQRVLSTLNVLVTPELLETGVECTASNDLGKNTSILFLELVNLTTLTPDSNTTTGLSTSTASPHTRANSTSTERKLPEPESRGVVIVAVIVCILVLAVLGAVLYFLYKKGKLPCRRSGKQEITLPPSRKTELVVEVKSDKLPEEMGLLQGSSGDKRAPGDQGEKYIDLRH
Procedure: as §1, §2

Measured: binding result

B1: mouse anti-human MCAM monoclonal antibody clone 1749.1.3 (antibody, V domains shown)
VH: DVKLVESGGDLVKPGGSLKLSCAASGFTFSSYIMSWVRQTPEKRLEWVATISSGGSSTYYPDSVKGRFTISRDNAKNTLYLQMSSLKSEDTAMYYCTRDDDYDVKVFAYWGQGTLVTVSA
VL: DIVMSQSPSSLAVSAGEKVTMNCKSSRSLLNSRIRKNYLAWYQQKPGQSPKLLIYWASTRESGVPDRFTGSGSGTDFTLTISSVQAEDLAVYYCKQSYNLLTFGAGTKLELK
notes: Mouse hybridoma monoclonal antibody; also called m1749
no binding (tested: <30% WT): all assays above
